Results reported in paper PMC10910794, “Toxoplasma sortilin interacts with secretory proteins and it is critical for parasite proliferation” (Parasites & Vectors, 2024).

Key:
[1] = molecular target: T1, GST-Vps10 (Vps10 subdomain of T. gondii sortilin) (Toxoplasma gondii, UniProt A0A7J6KCY2); experiment: bio-layer interferometry, biotinylated GST-Vps10 on SSA sensor; format: binding; conditions: AF38469 at 100-500 nM diluted in DMSO; PBS, DMSO as negative control
T1 construct: gene TGRH88_014830; Vps10 subdomain (160-667 aa) of 1033-aa sortilin; GST-tagged from pGEX-4T-1, E. coli BL21 (DE3); tag kept; biotinylated with NHS-PEG12-biotin

[2] = molecular target: T2, His-TgMIC3 (Toxoplasma gondii, UniProt A0A7J6KDB0 27-383); experiment: BLI
T2 chain: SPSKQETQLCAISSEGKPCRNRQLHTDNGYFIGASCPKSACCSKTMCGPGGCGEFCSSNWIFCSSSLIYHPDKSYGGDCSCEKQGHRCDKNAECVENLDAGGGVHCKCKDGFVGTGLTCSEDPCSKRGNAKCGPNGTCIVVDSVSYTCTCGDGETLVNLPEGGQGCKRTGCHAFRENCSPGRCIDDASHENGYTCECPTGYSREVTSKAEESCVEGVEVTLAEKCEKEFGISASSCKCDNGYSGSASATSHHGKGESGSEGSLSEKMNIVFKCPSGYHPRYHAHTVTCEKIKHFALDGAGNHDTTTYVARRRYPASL

[3] = molecular target: T3, His-TgROP9 (Toxoplasma gondii, UniProt S8F3X8 1-353); experiment: BLI
T3 chain: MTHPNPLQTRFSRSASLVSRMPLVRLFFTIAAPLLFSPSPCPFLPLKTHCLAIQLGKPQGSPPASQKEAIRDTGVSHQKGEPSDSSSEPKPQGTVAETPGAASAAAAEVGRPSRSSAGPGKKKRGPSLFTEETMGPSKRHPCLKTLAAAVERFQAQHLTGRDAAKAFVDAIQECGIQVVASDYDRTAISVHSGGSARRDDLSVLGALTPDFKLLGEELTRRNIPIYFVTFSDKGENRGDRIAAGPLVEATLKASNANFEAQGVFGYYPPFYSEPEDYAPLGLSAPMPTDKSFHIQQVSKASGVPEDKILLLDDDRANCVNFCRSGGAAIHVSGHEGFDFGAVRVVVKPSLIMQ

[4] = molecular target: T4, His-TgSAG2 (Toxoplasma gondii); experiment: BLI
T4 chain: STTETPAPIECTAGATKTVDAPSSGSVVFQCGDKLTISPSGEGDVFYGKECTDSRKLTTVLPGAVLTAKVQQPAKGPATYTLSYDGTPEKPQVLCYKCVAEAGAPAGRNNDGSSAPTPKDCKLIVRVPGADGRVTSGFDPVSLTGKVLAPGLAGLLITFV

Cc1cccc(NC(=O)c2ccc(C(F)(F)F)cc2C(=O)O)n1 [AF38469]
bio-layer interferometry, biotinylated GST-Vps10 on SSA sensor [1]: only the Vps10 subdomain could bind to AF38469 with high affinity

B1: GST-tagged recombinant sortilin protein (natural protein)
chain: MYTSRTPHGGLRRWPLSRSSVSAVASRVLSRSVAFHRRLASFLLSRKKTPLCALSSRPSGLQASSGVQTVTMAHSFARGRPPAAGRTLAVFLAFLAVLSPSLLPEFFSEDAQKRESSVLVANAASYANKKVSVSEVSFDSHIEDIQWCGTDHRTILLKTRRGRLYRSQDGGKSWTEITDLLKSSEAATGTVAVDSIIVSPVDKRVVLIVGSKRNHFISEDSAATFRRLKYKNTIHNFHFHPTRPKYAILSTWTDACYSGSGTASRAQSQQDCNHQLFYTRDLGRSFKLVADYVVQFSWGDKKLGNTDHIFFTQHRGRSGDQPRYGGWSKNVDLMYTPDFGATITRLVYRGNKFLLSNGYFFVAKVKDAAKQTVSLLVSTDGGKSFQMAKLPVEIEERSYTVLDTSEDAIMLHVNHGHDNKGDTGNVYISDAKGVRYSLSLPNNIRTSTGECEFDKVLSLEGVYLANFKDSVDSSASVDGGQQGDLEKLEEEIEEEAEGVQVDLEKKHKSVATRSRQEEVIRTVISFDKGGVWSYLKAPKVDSRGQKIDCPPDRCWLHLNGITRFSDFAPFYSVENAVGIIMGTGNVGSYLRPEKDEANTYLSRDGGVSWIEAHKGAFIYEMGDHGGLLVMADDTKKTNQVVFSWNEGQSWYDFELGAAPLFVDNIVIEPNASSVEFLLYGKREQDSAGVLFHLDFNALNQQQCKGIWAADSVSSDYETWSPSDGRAGGERCILGKHITYTRRKQTSECFNGRDFDRPKVSKVCPCTMEDYECEFGFTRAIGSTQCVATDAAAAAAATATGLAQFADESDAAAAAACTSSSFFYTSAYRKVPGDVCEGGWMPEKVAVPCPAHSPVSRGGKTVLLLLLFIVVVMVVINYLAKTGRLKKFFRNAGFDSFANVSYGLVGASAGGPGGWLDQEAGESRRGEELGERSKYEPELGFIEAEQDENEEDAPTLMNYGNAAGGQRTSGMSSRSPKPTEDFELDDSRPLFPSHVSSRETQGSSGLHPRSTSTENEPIPRLAPPRFDEDNVELL
Kd [2]: 0.847 nM
Kd [3]: 0.963 nM
Kd [4]: 915 nM
